This is an account of results in article PMC8004850, “The Histidine Phosphocarrier Kinase/Phosphorylase from Bacillus Subtilis Is an Oligomer in Solution with a High Thermal Stability” (International Journal of Molecular Sciences, 2021).

This series concerns the molecule itself. The series is described as follows: small-angle X-ray scattering (SAXS); 50 mM sodium phosphate buffer pH 7.0, 36 (legend: 35) and 8 µM protein, 25 °C; gyration radius compared with that calculated for the hexamer of PDB 1KNX.

B1: histidine phosphocarrier protein (HPr) kinase/phosphorylase of Bacillus subtilis (enzyme, UniProt O34483 1-310, looked up)
chain: MAKVRTKDVMEQFNLELISGEEGINRPITMSDLSRPGIEIAGYFTYYPRERVQLLGKTELSFFEQLPEEEKKQRMDSLCTDVTPAIILSRDMPIPQELIDASEKNGVPVLRSPLKTTRLSSRLTNFLESRLAPTTAIHGVLVDIYGVGVLITGKSGVGKSETALELVKRGHRLVADDCVEIRQEDQDTLVGNAPELIEHLLEIRGLGIINVMTLFGAGAVRSNKRITIVMNLELWEQGKQYDRLGLEEETMKIIDTEITKLTIPVRPGRNLAVIIEVAAMNFRLKRMGLNAAEQFTNKLADVIEDGEQEE
notes: HPr kinase/phosphorylase (HPrK/P) of Bacillus subtilis; theoretical molecular weight 36.6 kDa including the His-tag; Vector was a gift from Dr. A. Galinier; Oligomeric state depends on the buffer: monomer in pure water (DLS), mainly hexamer in 50 mM sodium phosphate pH 7.0; also called bsHPrK/P; HPrK/P; source: E. coli BL21 (DE3), purified (Ni-resin, Superdex 200 gel filtration), dialysed against …
As a reminder, the stoichiometry N is the number of molecules, sites or subunits per partner or assembly. Take B1: the “stoichiometry N” value was 6.
